Reference: publication PMC10505172, “Discovery and pharmacophoric characterization of chemokine network inhibitors using phage-display, saturation mutagenesis and computational modelling” (Nature Communications, 2023)

Columns and labels:
CXCL6 = target: T1, CXCL6 (Homo sapiens, UniProt P80162); assay: CXCL6-induced Jurkat CXCR1 (J:CXCR1) migration (chemotaxis); type: cell-based; settings: HD2, HD2SCR and EVA4 at 10 μM, chemokine at EC80, J:CXCR1 cells, n = 3 biological replicates, Dunnett's test
T1 construct: purchased Peprotech 300-41
Procedure: For THP1 migration assays, 300000 cells/well were added to the top chamber of a 5-µm 96-well Transwell insert (3387, Corning) in 50 µL of cell migration media (RPMI-1640 (R0883, Sigma), 0.5% FBS (F9665, Sigma), 4 mM L-Glutamine (G7513, Sigma), 0.05% DMSO (D4540, Sigma)). The bottom chamber contained 150 µL of migration media with chemokine and peptide added. Cells were migrated at 37 °C in 5% CO2 for 4 h.
J:CXCR1 migration assays were performed exactly as for THP1 assays except that a 3-µm Transwell insert (3385, Corning) was used.
Following the migration assay the migration plate was shaken at 850 RPM for 10 min, and media from bottom plate transferred to a round-bottomed 96 well plate (353910, Falcon). Cell counts were determined using an Atune NxT Flow Cytometer Plate Reader with Cytkick autosampler (ThermoFisher), based on cell size parameters FSC-H/SSC-H, and a previously defined gate setting for each cell type (Supplementary Fig. 11). […] Statistical significances between control and experimental groups was evaluated using Dunnett’s test[73]. […] EC80 was calculated by fitting a chemokine dose-response curve with a 3-parameter log-logistic model (fixing the top to 100%) using the function “drm” in R-package drc[74]. IC50 was calculated by fitting an inhibitor response curve with a 4-parameter log-logistic model using the function “drm” in R-package drc[74]. […]

CXCL10 = target: T2, CXCL10 (Homo sapiens, UniProt P02778); assay: CXCL10-induced activated T cell (ATC) migration (chemotaxis); type: cell-based; settings: HD2, HD2SCR and EVA4 at 20 μM (Fig. 6i), activated T cells, n = 3 biological replicates
T2 construct: purchased Peprotech 300-12
Procedure: For activated-T cell migration assays, 100000 cells/well were added to the top chamber of a 3-µm Transwell insert (3385, Corning) in 50 µL of migration media (HBSS (14025-092, Life Technologies), 0.1% protease free bovine serum albumin (A7030, Sigma), 0.05% DMSO (D4540, Sigma)). The bottom chamber contained 150 µL of migration media with chemokine and peptide added. Cells were migrated at 37 °C in 5% CO2 for 2 h.
Following the migration assay the migration plate was shaken at 850 RPM for 10 min, and media from bottom plate transferred to a round-bottomed 96 well plate (353910, Falcon). Cell counts were determined using an Atune NxT Flow Cytometer Plate Reader with Cytkick autosampler (ThermoFisher), based on cell size parameters FSC-H/SSC-H, and a previously defined gate setting for each cell type (Supplementary Fig. 11). All experiments were performed as three technical and three biological replicates. Statistical significances between control and experimental groups was evaluated using Dunnett’s test[73]. IC50 experiments were performed at the EC80 dose of chemokine. EC80 was calculated by fitting a chemokine dose-response curve with a 3-parameter log-logistic model (fixing the top to 100%) using the function “drm” in R-package drc[74]. IC50 was calculated by fitting an inhibitor response curve with a 4-parameter log-logistic model using the function “drm” in R-package drc[74]. […]

B1: EVA4: parental tick class A evasin, mature peptide residues 24–127 with N-terminal His-tag, expressed in HEK293F cells (protein)
chain: EVPQMTSSSAPDLEEEDDYTAYAPLTCYFTNSTLGLLAPPNCSVLCNSTTTWFNETSPNNASCLLTVDFLTQDAILQENQPYNCSVGHCDNGTCAGPPRHAQCW
modifications: left off: 8xHis, N-terminal, state not stated
notes: parental tick class A evasin, mature peptide residues 24–127 with N-terminal His-tag, expressed in HEK293F cells
CXCL6
  effect on chemokine-induced cell migration: did not inhibit
CXCL10
  effect on chemokine-induced cell migration: did not inhibit
